This series has as its target HuD (UniProt P26378 1-385). Description: EMSA; 2 uM HuD, 125 nM probe; complex specificity confirmed with unlabeled competitor oligoriboprobe; 10 mM HEPES pH 7.3, 20 mM KCl, 1 mM MgCl2, 1 mM DTT, 5% glycerol, 2 ug/ml tRNA, 30 min, room temperature; 6% native PAGE, 0.5X TBE. As to conditions: protein: commercial; label: 3'-biotin.

Sequence of HuD (P26378 whole entry): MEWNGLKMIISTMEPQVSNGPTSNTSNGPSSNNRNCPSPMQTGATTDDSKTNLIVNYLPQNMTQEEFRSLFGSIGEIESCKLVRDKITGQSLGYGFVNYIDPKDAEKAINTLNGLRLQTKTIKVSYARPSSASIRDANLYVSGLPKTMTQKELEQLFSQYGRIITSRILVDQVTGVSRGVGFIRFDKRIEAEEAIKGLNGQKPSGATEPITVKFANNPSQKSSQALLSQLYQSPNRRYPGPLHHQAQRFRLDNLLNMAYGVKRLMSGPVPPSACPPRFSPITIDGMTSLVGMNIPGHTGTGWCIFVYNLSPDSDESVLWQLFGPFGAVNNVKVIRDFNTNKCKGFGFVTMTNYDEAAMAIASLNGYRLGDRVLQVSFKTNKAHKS

With UUCUGUGAUCAUUUAUUUUAAGCACUC (ssRNA) [NEP mRNA 3'-UTR ARE oligoribonucleotide], the binding result was “binds”.

The values above are taken from article PMC4029802, “PKCε Promotes HuD-Mediated Neprilysin mRNA Stability and Enhances Neprilysin-Induced Aβ Degradation in Brain Neurons”.
